Earlier results on five substances are cited in paper PMC10653114.

One data set addresses Asp86 (UniProt position 133, GFRNSDRILYS). Particulars: 298 K; Conc. 0.0 (unit not given; Na+/Cl–).
A further data set deals with Asp44 (UniProt position 91, KGNLADVAPGK). Particulars: 298 K; Conc. 0.0 (unit not given; Na+/Cl–).
Another data set addresses Glu60 (UniProt position 107, IFSNREGKLPG). Particulars: 298 K; Conc. 0.0 (unit not given; Na+/Cl–).
Another data set deals with Asp93 (UniProt position 140, ILYSSDWLIYK). Particulars: 298 K; Conc. 0.0 (unit not given; Na+/Cl–).
The next data set addresses Asp22 (UniProt position 69, YHKLPDNYITK). Particulars: 298 K; Conc. 0.0 (unit not given; Na+/Cl–).
The next data set has as its target Asp8 (UniProt position 55, VINTFDGVADY). Particulars: 298 K; Conc. 0.0 (unit not given; Na+/Cl–).
Another data set addresses Glu73 (UniProt position 120, GRTWREADINY). Particulars: 298 K; Conc. 0.0 (unit not given; Na+/Cl–).
A further data set addresses Asp101 (UniProt position 148, IYKTTDHYQTF). Particulars: 298 K; Conc. 0.0 (unit not given; Na+/Cl–).
Another data set has as its target Glu29 (UniProt position 76, YITKSEAQALG). Particulars: 298 K; Conc. 0.0 (unit not given; Na+/Cl–).
For another data set, the target named is Asp54 (UniProt position 101, KSIGGDIFSNR). Particulars: 298 K; Conc. 0.0 (unit not given; Na+/Cl–).
A further data set deals with Asp75 (UniProt position 122, TWREADINYTS). Particulars: 298 K; Conc. 0.0 (unit not given; Na+/Cl–).
The next data set deals with Asp12 (UniProt position 59, FDGVADYLQTY). Particulars: 298 K; Conc. 0.0 (unit not given; Na+/Cl–).
Another data set deals with Asp21 (UniProt position 41, VSILSDASFNQ). Description: not stated (the title of ref 83 mentions NMR pH-dependent chemical shifts). Particulars: 313 K; Conc. 0.0 (unit not given; Na+/Cl–).
A further data set addresses Lys61 (UniProt position 81, CNTMIKKIVTL). Described as above. Particulars: 313 K; Conc. 0.0 (unit not given; Na+/Cl–).
The next data set has as its target Lys94 (UniProt position 114, NGFSNKCSSL-). The data set is described as above. Particulars: 313 K; Conc. 0.0 (unit not given; Na+/Cl–).
The next data set concerns the target Asp72 (UniProt position 92, NPPNCDLTVPT). The description is as above. Particulars: 313 K; Conc. 0.0 (unit not given; Na+/Cl–).
For a further data set, the target named is Asp30 (UniProt position 50, NQCSTDSGYSM). The data set is described as above. Particulars: 313 K; Conc. 0.0 (unit not given; Na+/Cl–).
The next data set concerns the target Lys46 (UniProt position 81, KRNNFKSAEDC). Description: NMR (only per the titles of cited refs 78 and 79; not given). Particulars: 308 K; Conc. 0.0 (unit not given; Na+/Cl– counter-ions in the simulation).
Data set [1] addresses Lys41 (UniProt position 76, GGCRAKRNNFK). The data set is described as above. Particulars: 308 K; Conc. 0.0 (unit not given; Na+/Cl– counter-ions in the simulation).
The next data set concerns the target Lys15 (UniProt position 50, YTGPCKARIIR). The data set is described as above. Particulars: 308 K; Conc. 0.0 (unit not given; Na+/Cl– counter-ions in the simulation).
A further data set deals with Glu49 (UniProt position 84, NFKSAEDCMRT). The description is as above. Particulars: 308 K; Conc. 0.0 (unit not given; Na+/Cl– counter-ions in the simulation).
Another data set addresses Lys26 (UniProt position 61, YFYNAKAGLCQ). Described as above. Particulars: 308 K; Conc. 0.0 (unit not given; Na+/Cl– counter-ions in the simulation).
The target in another data set is Asp50 (UniProt position 85, FKSAEDCMRTC). Described as above. Particulars: 308 K; Conc. 0.0 (unit not given; Na+/Cl– counter-ions in the simulation).
The next data set concerns the target Asp3 (UniProt position 38, KAQRPDFCLEP). The data set is described as above. Particulars: 308 K; Conc. 0.0 (unit not given; Na+/Cl– counter-ions in the simulation).
In another data set the target is Glu7 (UniProt position 42, PDFCLEPPYTG). The data set is described as above. Particulars: 308 K; Conc. 0.0 (unit not given; Na+/Cl– counter-ions in the simulation).
In the next data set the target is Lys12 (UniProt position 16, KGIFEKYAAKE). Particulars: 300 K; Conc. 0.00 (unit not given; Na+/Cl–); apo (Ca2+-free), inferred from the apo structure 1CLB used.
The target in data set [2] is Lys41 (UniProt position 45, FPSLLKGPSTL). Particulars: 300 K; Conc. 0.00 (unit not given; Na+/Cl–); apo (Ca2+-free), inferred from the apo structure 1CLB used.
Another data set addresses Lys16 (UniProt position 20, EKYAAKEGDPN). Particulars: 300 K; Conc. 0.00 (unit not given; Na+/Cl–); apo (Ca2+-free), inferred from the apo structure 1CLB used.
The target of a further data set is Lys55 (UniProt position 59, FEELDKNGDGE). Particulars: 300 K; Conc. 0.00 (unit not given; Na+/Cl–); apo (Ca2+-free), inferred from the apo structure 1CLB used.
For a further data set, the target named is Lys7 (UniProt position 11, SPEELKGIFEK). Particulars: 300 K; Conc. 0.00 (unit not given; Na+/Cl–); apo (Ca2+-free), inferred from the apo structure 1CLB used.
In the next data set the target is Lys25 (UniProt position 29, PNQLSKEELKL). Particulars: 300 K; Conc. 0.00 (unit not given; Na+/Cl–); apo (Ca2+-free), inferred from the apo structure 1CLB used.
The next data set deals with Lys72 (UniProt position 76, QVLVKKISQ--). Particulars: 300 K; Conc. 0.00 (unit not given; Na+/Cl–); apo (Ca2+-free), inferred from the apo structure 1CLB used.
A further data set deals with Lys29 (UniProt position 33, SKEELKLLLQT). Particulars: 300 K; Conc. 0.00 (unit not given; Na+/Cl–); apo (Ca2+-free), inferred from the apo structure 1CLB used.
A further data set addresses Lys71 (UniProt position 75, FQVLVKKISQ-). Particulars: 300 K; Conc. 0.00 (unit not given; Na+/Cl–); apo (Ca2+-free), inferred from the apo structure 1CLB used.
Another data set concerns the target Asp43 (UniProt position 417, WTLTFDFPSGQ). Particulars: 298 K; Conc. 0.10 (unit not given; K+/Cl–).

As for Barnase (Bacillus amyloliquefaciens), the pKa – broadly, the pH at which an ionisable group is half protonated – in the data set with Asp86 is on record as 4.2 ± 0.1; with Asp44, 3.6 ± 0.1; in the data set with Glu60, 3.4 ± 0.1; with Asp93, less than 2.0; with Asp22, 3.3 ± 0.1; with Asp8, 3.1 ± 0.2. Besides, the pKa in the data set with Glu73 is given as 2.1 ± 0.1; with Asp101, 2.0 ± 0.2; in the data set with Glu29, 3.75 ± 0.05; with Asp54, 2.2 ± 0.3; with Asp75, 3.1 ± 0.2; with Asp12, 3.6 ± 0.2.

Turning to “Beta-cryptogein (beta-elicitin) (Phytophthora cryptogea)”, the pKa with Asp21 is given as 2.49 ± 0.05; in the data set with Lys61 it was 10.1; in the data set with Lys94, 9.4; with Asp72 it was 2.61 ± 0.15; with Asp30, 2.51 ± 0.09.

“Bovine pancreatic trypsin inhibitor (BPTI) (Bos taurus)”: the pKa is given as 10.30 with Lys46; 11.20 with Lys41 [1]; 10.60 with Lys15; 3.75 ± 0.05 in the data set with Glu49; 10.60 with Lys26; 3.20 ± 0.20 with Asp50. Besides, the pKa is 3.25 ± 0.15 with Asp3 and 3.65 ± 0.05 in the data set with Glu7.

With Calbindin D9k (apo) (Bos taurus), the pKa with Lys12 was 12.02; with Lys41 [2], 11.02; with Lys16 it was 11.90; with Lys55, 12.95; with Lys7 it was 12.53; with Lys25, 13.21. For the same substance, the pKa was 11.95 in the data set with Lys72, 11.81 with Lys29 and 11.22 with Lys71.

Take “Highly charge-depleted protein (PDB 6QFS), S43D variant (Cellulomonas fimi (parent domain; not stated in the article); S43D (on the 6QFS charge-depleted background; background substitutions not stated))”: the pKa with Asp43 is recorded as 4.37 ± 0.01.
